Two variants from IntAct's records for PubMed 9418861 can be followed below.

The chains are these.
B1: Serine/threonine-protein kinase MRCK alpha (Homo sapiens), Q5VT25 (parent)
chain: MSGEVRLRQLEQFILDGPAQTNGQCFSVETLLDILICLYDECNNSPLRREKNILEYLEWAKPFTSKVKQMRLHREDFEILKVIGRGAFGEVAVVKLKNADKVFAMKILNKWEMLKRAETACFREERDVLVNGDNKWITTLHYAFQDDNNLYLVMDYYVGGDLLTLLSKFEDRLPEDMARFYLAEMVIAIDSVHQLHYVHRDIKPDNILMDMNGHIRLADFGSCLKLMEDGTVQSSVAVGTPDYISPEILQAMEDGKGRYGPECDWWSLGVCMYEMLYGETPFYAESLVETYGKIMNHKERFQFPAQVTDVSENAKDLIRRLICSREHRLGQNGIEDFKKHPFFSGIDWDNIRNCEAPYIPEVSSPTDTSNFDVDDDCLKNSETMPPPTHTAFSGHHLPFVGFTYTSSCVLSDRSCLRVTAGPTSLDLDVNVQRTLDNNLATEAYERRIKRLEQEKLELSRKLQESTQTVQALQYSTVDGPLTASKDLEIKNLKEEIEKLRKQVTESSHLEQQLEEANAVRQELDDAFRQIKAYEKQIKTLQQEREDLNKELVQASERLKNQSKELKDAHCQRKLAMQEFMEINERLTELHTQKQKLARHVRDKEEEVDLVMQKVESLRQELRRTERAKKELEVHTEALAAEASKDRKLREQSEHYSKQLENELEGLKQKQISYSPGVCSIEHQQEITKLKTDLEKKSIFYEEELSKREGIHANEIKNLKKELHDSEGQQLALNKEIMILKDKLEKTRRESQSEREEFESEFKQQYEREKVLLTEENKKLTSELDKLTTLYENLSIHNQQLEEEVKDLADKKESVAHWEAQITEIIQWVSDEKDARGYLQALASKMTEELEALRNSSLGTRATDMPWKMRRFAKLDMSARLELQSALDAEIRAKQAIQEELNKVKASNIITECKLKDSEKKNLELLSEIEQLIKDTEELRSEKGIEHQDSQHSFLAFLNTPTDALDQFERSPSCTPASKGRRTVDSTPLSVHTPTLRKKGCPGSTGFPPKRKTHQFFVKSFTTPTKCHQCTSLMVGLIRQGCSCEVCGFSCHITCVNKAPTTCPVPPEQTKGPLGIDPQKGIGTAYEGHVRIPKPAGVKKGWQRALAIVCDFKLFLYDIAEGKASQPSVVISQVIDMRDEEFSVSSVLASDVIHASRKDIPCIFRVTASQLSASNNKCSILMLADTENEKNKWVGVLSELHKILKKNKFRDRSVYVPKEAYDSTLPLIKTTQAAAIIDHERIALGNEEGLFVVHVTKDEIIRVGDNKKIHQIELIPNDQLVAVISGRNRHVRLFPMSALDGRETDFYKLSETKGCQTVTSGKVRHGALTCLCVAMKRQVLCYELFQSKTRHRKFKEIQVPYNVQWMAIFSEQLCVGFQSGFLRYPLNGEGNPYSMLHSNDHTLSFIAHQPMDAICAVEISSKEYLLCFNSIGIYTDCQGRRSRQQELMWPANPSSCCYNAPYLSVYSENAVDIFDVNSMEWIQTLPLKKVRPLNNEGSLNLLGLETIRLIYFKNKMAEGDELVVPETSDNSRKQMVRNINNKRRYSFRVPEEERMQQRREMLRDPEMRNKLISNPTNFNHIAHMGPGDGIQILKDLPMNPRPQESRTVFSGSVSIPSITKSRPEPGRSMSASSGLSARSSAQNGSALKREFSGGSYSAKRQPMPSPSEGSLSSGGMDQGSDAPARDFDGEDSDSPRHSTASNSSNLSSPPSPASPRKTKSLSLESTDRGSWDP

Variants of B1 are the subject of the assay. Conditions: with cdc42_human CDC42, P60953.
cdc42_human CDC42, P60953, sequence (P60953 whole entry, looked up): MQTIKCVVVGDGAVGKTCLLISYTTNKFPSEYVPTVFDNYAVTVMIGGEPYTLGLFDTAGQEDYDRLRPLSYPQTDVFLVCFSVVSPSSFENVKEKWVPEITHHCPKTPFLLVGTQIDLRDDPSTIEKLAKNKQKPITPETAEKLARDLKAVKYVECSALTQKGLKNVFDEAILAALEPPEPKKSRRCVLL
Take H1579A: the “effect of a mutation on the interaction” value was “decreasing interaction”. With H1582A the entry was “decreasing interaction”.
